The text below walks through data of the supplement of paper PMC11246515.

± gives the standard deviation of the averaged measurements.

This data set can be described thus: total protein half-life in vivo (active degradation + dilution); higher = more stable protein.
Setting [1] is: E. coli NCM3722 delta-smpB, growth: N-lim chemostat, doubling time 6 h.
The mark [2] stands for this setting: wild type E. coli NCM3722, growth: C-lim chemostat, doubling time 3 h.
Where [3] appears, read: wild type E. coli NCM3722, growth: N-lim chemostat, doubling time 6 h.
Where [4] appears, read: wild type E. coli NCM3722, growth: P-lim chemostat, doubling time 12 h.
The mark [5] stands for this setting: E. coli NCM3722 delta-clpP delta-lon delta-hslV, growth: N-lim chemostat, doubling time 6 h.
[6] abbreviates: E. coli NCM3722 delta-hslV, growth: N-lim chemostat, doubling time 6 h.
Where [7] appears, read: E. coli NCM3722 delta-lon, growth: N-lim chemostat, doubling time 6 h.
The mark [8] stands for this setting: wild type E. coli NCM3722, growth: C-lim chemostat, doubling time 6 h.
The mark [9] stands for this setting: wild type E. coli NCM3722, growth: C-lim chemostat, doubling time 12 h.
The mark [10] stands for this setting: wild type E. coli NCM3722, growth: N-lim chemostat, doubling time 12 h.
[11] abbreviates: wild type E. coli NCM3722, growth: P-lim chemostat, doubling time 6 h.
Setting [12] is: E. coli NCM3722 delta-clpP, growth: N-lim chemostat, doubling time 6 h.

As to “MLKTIQDKARHRTRPLWAWLKLLWQRIDEDNMTTLAGNLAYVSLLSLVPLVAVVFALFAAFPMFSDVSIQLRHFIFANFLPATGDVIQRYIEQFVANSNKMTAVGACGLIVTALLLMYSIDSALNTIWRSKRARPKIYSFAVYWMILTLGPLLAGASLAISSYLLSLRWASDLNTVIDNVLRIFPLLLSWISFWLLYSIVPTIRVPNRDAIVGAFVAALLFEAGKKGFALYITMFPSYQLIYGVLAVIPILFVWVYWTWCIVLLGAEITVTLGEYRKLKQAAEQEEDDEP [P0A8K8]”, the “total protein half-life in vivo” value is 4.46 h under setting [1], more than 4 h under setting [2], 7.67 h under setting [3] and more than 16 h under setting [4].

For the sequence “MANWLNQLQSLLGQSSSSTSSSADQGLVKLLVPGALGGLAGLLVANKSARKLLTKYGTNALLVGGGAVAGTVLWNKYKDKIRAAHQDEPQFGAQSTPLDERTARLILALVFAAKSDGHIDAKERAAIDQQLRGAGVEEQGRVLIEQAIEQPLDPQRLATGVRNEEEALEIYFLSCAAIDIDHFMERSYLNALGDALKIPQDVRDGIERDLEQQKRTLAE”, the “total protein half-life in vivo” value is, setting by setting: under setting [5], 5.293 ± 0.0053 h; under setting [6], 3.74 ± 0.12 h; under setting [7], 3.56 ± 0.13 h; under setting [1], 4.47 ± 0.86 h; under setting [2], 2.22 ± 0.19 h; under setting [8], 4.49 ± 0.37 h. Moreover, the “total protein half-life in vivo” value under setting [9] amounted to 9.68 ± 3.4 h; the “total protein half-life in vivo” value under setting [3] is 4.91 ± 1.6 h; the “total protein half-life in vivo” value under setting [10] is 8.34 ± 0.38 h; the “total protein half-life in vivo” value under setting [11] came out at 3.34 ± 0.58 h; the “total protein half-life in vivo” value under setting [4] turned out to be 5.708 ± 0.041 h.

Turning to “MTTKNMNTPPGSTQENEIDLLRLVGELWDHRKFIISVTALFTLIAVAYSLLSTPIYQADTLVQVEQKQGNAILSGLSDMIPNSSPESAPEIQLLQSRMILGKTIAELNLRDIVEQKYFPIVGRGWARLTKEKPGELAISWMHIPQLNGQDQQLTLTVGENGHYTLEGEEFTVNGMVGQRLEKDGVALTIADIKAKPGTQFVLSQRTELEAINALQETFTVSERSKESGMLELTMTGDDPQLITRILNSIANNYLQQNIARQAAQDSQSLEFLQRQLPEVRSELDQAEEKLNVYRQQRDSVDLNLEAKAVLEQIVNVDNQLNELTFREAEISQLYKKDHPTYRALLEKRQTLEQERKRLNKRVSAMPSTQQEVLRLSRDVEAGRAVYLQLLNRQQELSISKSSAIGNVRIIDPAVTQPQPVKPKKALNVVLGFILGLFISVGAVLARAMLRRGVEAPEQLEEHGISVYATIPMSEWLDKRTRLRKKNLFSNQQRHRTKNIPFLAVDNPADSAVEAVRALRTSLHFAMMETENNILMITGATPDSGKTFVSSTLAAVIAQSDQKVLFIDADLRRGYSHNLFTVSNEHGLSEYLAGKDELNKVIQHFGKGGFDVITRGQVPPNPSELLMRDRMRQLLEWANDHYDLVIVDTPPMLAVSDAAVVGRSVGTSLLVARFGLNTAKEVSLSMQRLEQAGVNIKGAILNGVIKRASTAYSYGYNYYGYSYSEKE”, the “total protein half-life in vivo” value under setting [5] was 4.74 ± 1.7 h; the “total protein half-life in vivo” value under setting [2] was found to be 1.74 ± 0.34 h; the “total protein half-life in vivo” value under setting [8] amounted to 3.3 h; the “total protein half-life in vivo” value under setting [9] was found to be 7.46 h; the “total protein half-life in vivo” value under setting [11] worked out at 1.53 ± 0.24 h.

As for “MSYLNLRLYQRNTQCLHIRKHRLAGFFVRLVVACAFAAQAPLSSADLYFNPRFLADDPQAVADLSRFENGQELPPGTYRVDIYLNNGYMATRDVTFNTGDSEQGIVPCLTRAQLASMGLNTASVAGMNLLADDACVPLTTMVQDATAHLDVGQQRLNLTIPQAFMSNRARGYIPPELWDPGINAGLLNYNFSGNSVQNRIGGNSHYAYLNLQSGLNIGAWRLRDNTTWSYNSSDRSSGSKNKWQHINTWLERDIIPLRSRLTLGDGYTQGDIFDGINFRGAQLASDDNMLPDSQRGFAPVIHGIARGTAQVTIKQNGYDIYNSTVPPGPFTINDIYAAGNSGDLQVTIKEADGSTQIFTVPYSSVPLLQREGHTRYSITAGEYRSGNAQQEKTRFFQSTLLHGLPAGWTIYGGTQLADRYRAFNFGIGKNMGALGALSVDMTQANSTLPDDSQHDGQSVRFLYNKSLNESGTNIQLVGYRYSTSGYFNFADTTYSRMNGYNIETQDGVIQVKPKFTDYYNLAYNKRGKLQLTVTQQLGRTSTLYLSGSHQTYWGTSNVDEQFQAGLNTAFEDINWTLSYSLTKNAWQKGRDQMLALNVNIPFSHWLRSDSKSQWRHASASYSMSHDLNGRMTNLAGVYGTLLEDNNLSYSVQTGYAGGGDGNSGSTGYATLNYRGGYGNANIGYSHSDDIKQLYYGVSGGVLAHANGVTLGQPLNDTVVLVKAPGAKDAKVENQTGVRTDWRGYAVLPYATEYRENRVALDTNTLADNVDLDNAVANVVPTRGAIVRAEFKARVGIKLLMTLTHNNKPLPFGAMVTSESSQSSGIVADNGQVYLSGMPLAGKVQVKWGEEENAHCVANYQLPPESQQQLLTQLSAECR”, the “total protein half-life in vivo” value reads like this: under setting [1], 5.97 ± 0.21 h; under setting [2], 3.14 h; under setting [8], 6.02 h; under setting [9], more than 16 h; under setting [3], more than 8 h; under setting [10], more than 16 h. Besides, the “total protein half-life in vivo” value under setting [11] was 6.2 h and the “total protein half-life in vivo” value under setting [4] is more than 16 h.

Take “MYLYIETLKQRLDAINQLRVDRALAAMGPAFQQVYSLLPTLLHYHHPLMPGYLDGNVPKGICLYTPDETQRHYLNELELYRGMSVQDPPKGELPITGVYTMGSTSSVGQSCSSDLDIWVCHQSWLDSEERQLLQRKCSLLENWAASLGVEVSFFLIDENRFRHNESGSLGGEDCGSTQHILLLDEFYRTAVRLAGKRILWNMVPCDEEEHYDDYVMTLYAQGVLTPNEWLDLGGLSSLSAEEYFGASLWQLYKSIDSPYKAVLKTLLLEAYSWEYPNPRLLAKDIKQRLHDGEIVSFGLDPYCMMLERVTEYLTAIEDFTRLDLVRRCFYLKVCEKLSRERACVGWRRAVLSQLVSEWGWDEARLAMLDNRANWKIDQVREAHNELLDAMMQSYRNLIRFARRNNLSVSASPQDIGVLTRKLYAAFEALPGKVTLVNPQISPDLSEPNLTFIYVPPGRANRSGWYLYNRAPNIESIISHQPLEYNRYLNKLVAWAWFNGLLTSRTRLYIKGNGIVDLPKLQEMVADVSHHFPLRLPAPTPKALYSPCEIRHLAIIVNLEYDPTAAFRNQVVHFDFRKLDVFSFGENQNCLVGSVDLLYRNSWNEVRTLHFNGEQSMIEALKTILGKMHQDAAPPDSVEVFCYSQHLRGLIRTRVQQLVSECIELRLSSTRQETGRFKALRVSGQTWGLFFERLNVSVQKLENAIEFYGAISHNKLHGLSVQVETNHVKLPAVVDGFASEGIIQFFFEETQDENGFNIYILDESNRVEVYHHCEGSKEELVRDVSRFYSSSHDRFTYGSSFINFNLPQFYQIVKVDGREQVIPFRTKSIGNMPPANQDHDTPLLQQYFS”: the “total protein half-life in vivo” value is 4.23 ± 0.18 h under setting [5]; 3.635 ± 0.028 h under setting [12]; 1.14 ± 0.25 h under setting [6]; 1.04 ± 0.087 h under setting [7]; 1.36 ± 0.081 h under setting [1]; 0.845 ± 0.015 h under setting [2]. Moreover, the “total protein half-life in vivo” value is, setting by setting: under setting [8], 1.19 h; under setting [9], 1.66 ± 0.22 h; under setting [3], 1.27 ± 0.07 h; under setting [10], 1.72 ± 0.053 h; under setting [11], 2.155 ± 0.0068 h; under setting [4], 3.73 ± 0.4 h.

As to “MKGSYKSRWVIVIVVVIAAIAAFWFWQGRNDSRSAAPGATKQAQQSPAGGRRGMRSGPLAPVQAATAVEQAVPRYLTGLGTITAANTVTVRSRVDGQLIALHFQEGQQVKAGDLLAEIDPSQFKVALAQAQGQLAKDKATLANARRDLARYQQLAKTNLVSRQELDAQQALVSETEGTIKADEASVASAQLQLDWSRITAPVDGRVGLKQVDVGNQISSGDTTGIVVITQTHPIDLVFTLPESDIATVVQAQKAGKPLVVEAWDRTNSKKLSEGTLLSLDNQIDATTGTIKVKARFNNQDDALFPNQFVNARMLVDTEQNAVVIPTAALQMGNEGHFVWVLNSENKVSKHLVTPGIQDSQKVVIRAGISAGDRVVTDGIDRLTEGAKVEVVEAQSATTPEEKATSREYAKKGARS”, the “total protein half-life in vivo” value under setting [5] came to 6.33 ± 0.75 h; the “total protein half-life in vivo” value under setting [7] stood at 6.148 ± 0.046 h; the “total protein half-life in vivo” value under setting [1] was found to be 6.07 ± 0.51 h; the “total protein half-life in vivo” value under setting [8] turned out to be 6.25 ± 0.65 h; the “total protein half-life in vivo” value under setting [9] was determined as 12.3 ± 0.27 h; the “total protein half-life in vivo” value under setting [3] turned out to be 6.1255 ± 0.0044 h. Further, the “total protein half-life in vivo” value runs as follows: under setting [10], 13.2 ± 0.32 h; under setting [11], 5.8716 ± 0.00037 h; under setting [4], 10.5 ± 0.89 h.

As to “MIVRPQQHWLRRIFVWHGSVLSKISSRLLLNFLFSIAVIFMLPWYTHLGIKFTLAPFSILGVAIAIFLGFRNNAGYARYVEARKLWGQLMIASRSLLREVKTTLPDSASVREFARLQIAFAHCLRMTLRKQPQAEVLAHYLKTEDLQRVLASNSPANRILLIMGEWLAVQRRNGQLSDILFISLNDRLNDISAVLAGCERIAYTPIPFAYTLILHRTVYLFCIMLPFALVVDLHYMTPFISVLISYTFISLDCLAEELEDPFGTENNDLPLDAICNAIEIDLLQMNDEAEIPAKILPDRHYQLT”, the “total protein half-life in vivo” value under setting [5] turned out to be 6.05 h; the “total protein half-life in vivo” value under setting [12] was 5.43 h; the “total protein half-life in vivo” value under setting [6] turned out to be 5.52 h; the “total protein half-life in vivo” value under setting [3] was 3.6 h; the “total protein half-life in vivo” value under setting [10] was 8.65 h; the “total protein half-life in vivo” value under setting [11] turned out to be 5.86 ± 0.6 h. The “total protein half-life in vivo” value under setting [4] amounted to 11.5 ± 0.23 h.
